Results from patent US20170015742A1 (published 2017).

Tests used:
Human VEGF-A 165 = biological target: T1, Human VEGF-A 165 (human, UniProt P15692 207-395); assay: SPR (Biacore), method of Example 1.1
T1 construct: also called hVEGF165

Human PDGF-BB = biological target: T2, Human PDGF-BB (human, UniProt P01127 82-190); assay: SPR (Biacore), method of Example 1.1
T2 construct: also called hPDGF-BB

VEGF-A = VEGF-A (UniProt P15692-4 27-191, limits assumed); assay: SPR (Biacore), DVD-Ig captured by anti-human Fc, antigen injected
Procedure: (§1) For example, approximately 9000 RU of goat anti-human Fc specific polyclonal antibody (Thermo Fisher Scientific Inc., Rockford, Ill.) diluted in 10 mM sodium acetate (pH 4.5) is directly immobilized across a CM5 research grade biosensor chip using a standard amine coupling kit according to manufacturer's instructions and procedures at 25 μg/ml. Unreacted moieties on the biosensor surface were blocked with ethanolamine. For kinetic analysis, rate equations derived from the 1:1 Langmuir binding model were fitted simultaneously to multiple antigen injections (using global fit analysis) with the use of Scrubber 2 (BioLogic Software), Biacore Biaevaluation 4.0.1 software or Biacore T100 Evaluation software. Purified antibodies or DVD-Ig molecules were diluted in running buffer for capture across goat anti-human Fc reaction surfaces. Antibodies or DVD-Ig molecules to be captured as a ligand (1 μg/ml) were injected over reaction matrices at a flow rate of 10 μl/minute. During the assay, all measurements were referenced against the capture surface alone (i.e., with no captured antibody or DVD-Ig molecule). […] The equilibrium dissociation constant KD (M) of the reaction between antibodies and the target antigen was then calculated from the kinetic rate constants by the following formula: KD=Koff/Kₒₙ. Binding was recorded as a function of time and kinetic rate constants were calculated.

PDGF-BB = PDGF-BB (UniProt P01127 82-190); assay: as above
Procedure: as §1

PDGF-BB, sequence (P01127 82-190): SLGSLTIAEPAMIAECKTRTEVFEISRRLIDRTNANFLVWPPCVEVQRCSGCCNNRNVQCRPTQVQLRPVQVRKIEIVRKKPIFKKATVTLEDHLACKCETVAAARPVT
T2 sequence (P01127 82-190 limits assumed): as the sequence (P01127 82-190) above
T1 sequence (P15692 other isoform, or with tags, fused parts or gaps limits assumed): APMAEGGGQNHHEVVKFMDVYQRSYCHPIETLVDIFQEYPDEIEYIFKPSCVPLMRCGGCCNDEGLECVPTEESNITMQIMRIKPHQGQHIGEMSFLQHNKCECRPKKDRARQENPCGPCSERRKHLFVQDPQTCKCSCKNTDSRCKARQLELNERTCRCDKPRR
VEGF-A, sequence (P15692 other isoform, or with tags, fused parts or gaps limits assumed): as above

Kd (Human VEGF-A 165) [pM] | kon (Human VEGF-A 165) [M⁻¹ s⁻¹] | Kd (Human PDGF-BB) [pM] | kon (Human PDGF-BB) [M⁻¹ s⁻¹] | Kd (VEGF-A) [pM] | kon (VEGF-A) [M⁻¹ s⁻¹] | Kd (PDGF-BB) [pM] | kon (PDGF-BB) [M⁻¹ s⁻¹] | Binder
33 | 3.1e+06 | 3.5 | 4.6e+07 | – | – | – | – | CODV020 (bispecific antibody, human IgG1, kappa, L234A L235A, Anti-human VEGF-A/anti-human PDGF-BB cross-over DVD-Ig (CO-DVD-Ig); also called PR-1571836) heavy: EFVLTQSPGTLSLSPGERATLSCERSSGDIGDSYVSWYQQKPGQAPRLVIYADDQRPSGIPDRFSGSGSGTDFTLTISRLEPEDFAVYYCQSYDINIDIVFGGGTKVEIKGGGSGGGGEVQLVQSGSELKKPGASVKVSCKASGYTFTNYGMYWVRQAPGQGLEWMGWINTETGKPTYADDFKGRFVFSLDTSVSTAYLQISSLKAEDTAVYYCARTNYYYRSYIFYFDYWGQGTMVTVSSLGGCGGGSASTKGPSVFPLAPSSKSTSGGTAALGCLVKDYFPEPVTVSWNSGALTSGVHTFPAVLQSSGLYSLSSVVTVPSSSLGTQTYICNVNHKPSNTKVDKKVEPKSCDKTHTCPPCPAPEAAGGPSVFLFPPKPKDTLMISRTPEVTCVVVDVSHEDPEVKFNWYVDGVEVHNAKTKPREEQYNSTYRVVSVLTVLHQDWLNGKEYKCKVSNKALPAPIEKTISKAKGQPREPQVYTLPPSREEMTKNQVSLTCLVKGFYPSDIAVEWESNGQPENNYKTTPPVLDSDGSFFLYSKLTVDKSRWQQGNVFSCSVMHEALHNAYTQKSLSLSPGK light: DTVLTQSPATLSLSPGERATLSCRASESVSTHMHWYQQKPGQAPRLLIYGASNLESGVPARFSGSGSGTDFTLTISSLEPEDFAVYFCQQSWNDPFTFGQGTKLEIKGGGSGGGGEVTLRESGPALVKPTQTLTLTCTFSGFSLSTYGMGVGWIRQPPGKALEWLANIWWDDDKYYNPSLKNRLTISKDTSKNQVVLTMTNMDPVDTATYYCARIESIGTTYSFDYWGQGTMVTVSSLGGCGGGSRTVAAPSVFIFPPSDEQLKSGTASVVCLLNNFYPREAKVQWKVDNALQSGNSQESVTEQDSKDSTYSLSSTLTLSKADYEKHKVYACEVTHQGLSSPVTKSFNRGEC
50 | 2.9e+06 | 4.4 | 3.9e+07 | – | – | – | – | CODV019 (bispecific antibody, human IgG1, kappa, L234A L235A, Anti-human VEGF-A/anti-human PDGF-BB cross-over DVD-Ig (CO-DVD-Ig); also called PR-1571832) heavy: DTVLTQSPATLSLSPGERATLSCRASESVSTHMHWYQQKPGQAPRLLIYGASNLESGVPARFSGSGSGTDFTLTISSLEPEDFAVYFCQQSWNDPFTFGQGTKLEIKGGGSGGGGEVTLRESGPALVKPTQTLTLTCTFSGFSLSTYGMGVGWIRQPPGKALEWLANIWWDDDKYYNPSLKNRLTISKDTSKNQVVLTMTNMDPVDTATYYCARIESIGTTYSFDYWGQGTMVTVSSLGGCGGGSASTKGPSVFPLAPSSKSTSGGTAALGCLVKDYFPEPVTVSWNSGALTSGVHTFPAVLQSSGLYSLSSVVTVPSSSLGTQTYICNVNHKPSNTKVDKKVEPKSCDKTHTCPPCPAPEAAGGPSVFLFPPKPKDTLMISRTPEVTCVVVDVSHEDPEVKFNWYVDGVEVHNAKTKPREEQYNSTYRVVSVLTVLHQDWLNGKEYKCKVSNKALPAPIEKTISKAKGQPREPQVYTLPPSREEMTKNQVSLTCLVKGFYPSDIAVEWESNGQPENNYKTTPPVLDSDGSFFLYSKLTVDKSRWQQGNVFSCSVMHEALHNAYTQKSLSLSPGK light: EFVLTQSPGTLSLSPGERATLSCERSSGDIGDSYVSWYQQKPGQAPRLVIYADDQRPSGIPDRFSGSGSGTDFTLTISRLEPEDFAVYYCQSYDINIDIVFGGGTKVEIKGGGSGGGGEVQLVQSGSELKKPGASVKVSCKASGYTFTNYGMYWVRQAPGQGLEWMGWINTETGKPTYADDFKGRFVFSLDTSVSTAYLQISSLKAEDTAVYYCARTNYYYRSYIFYFDYWGQGTMVTVSSLGGCGGGSRTVAAPSVFIFPPSDEQLKSGTASVVCLLNNFYPREAKVQWKVDNALQSGNSQESVTEQDSKDSTYSLSSTLTLSKADYEKHKVYACEVTHQGLSSPVTKSFNRGEC

Continued, binder first:

Binder | Kd (Human VEGF-A 165) [pM] | kon (Human VEGF-A 165) [M⁻¹ s⁻¹] | Kd (Human PDGF-BB) [pM] | kon (Human PDGF-BB) [M⁻¹ s⁻¹] | Kd (VEGF-A) [pM] | kon (VEGF-A) [M⁻¹ s⁻¹] | Kd (PDGF-BB) [pM] | kon (PDGF-BB) [M⁻¹ s⁻¹]
CODV018 (bispecific antibody, human IgG1, kappa, L234A L235A, Anti-human VEGF-A/anti-human PDGF-BB cross-over DVD-Ig (CO-DVD-Ig); also called PR-1571831) heavy: EFVLTQSPGTLSLSPGERATLSCERSSGDIGDSYVSWYQQKPGQAPRLVIYADDQRPSGIPDRFSGSGSGTDFTLTISRLEPEDFAVYYCQSYDINIDIVFGGGTKVEIKGGGSGGGDTVLTQSPATLSLSPGERATLSCRASESVSTHMHWYQQKPGQAPRLLIYGASNLESGVPARFSGSGSGTDFTLTISSLEPEDFAVYFCQQSWNDPFTFGQGTKLEIKGGGSGASTKGPSVFPLAPSSKSTSGGTAALGCLVKDYFPEPVTVSWNSGALTSGVHTFPAVLQSSGLYSLSSVVTVPSSSLGTQTYICNVNHKPSNTKVDKKVEPKSCDKTHTCPPCPAPEAAGGPSVFLFPPKPKDTLMISRTPEVTCVVVDVSHEDPEVKFNWYVDGVEVHNAKTKPREEQYNSTYRVVSVLTVLHQDWLNGKEYKCKVSNKALPAPIEKTISKAKGQPREPQVYTLPPSREEMTKNQVSLTCLVKGFYPSDIAVEWESNGQPENNYKTTPPVLDSDGSFFLYSKLTVDKSRWQQGNVFSCSVMHEALHNAYTQKSLSLSPGK light: EVQLVQSGSELKKPGASVKVSCKASGYTFTNYGMYWVRQAPGQGLEWMGWINTETGKPTYADDFKGRFVFSLDTSVSTAYLQISSLKAEDTAVYYCARTNYYYRSYIFYFDYWGQGTMVTVSSGEVTLRESGPALVKPTQTLTLTCTFSGFSLSTYGMGVGWIRQPPGKALEWLANIWWDDDKYYNPSLKNRLTISKDTSKNQVVLTMTNMDPVDTATYYCARIESIGTTYSFDYWGQGTMVTVSSGGRTVAAPSVFIFPPSDEQLKSGTASVVCLLNNFYPREAKVQWKVDNALQSGNSQESVTEQDSKDSTYSLSSTLTLSKADYEKHKVYACEVTHQGLSSPVTKSFNRGEC | 31000 | – | 5.3 | 3.5e+07 | – | – | – | –
9E10.1_GS_CL-33675 (PR-1610561) (bispecific antibody, human IgG1, kappa, L234A L235A, DVD-Ig: outer hBEW-9E10.1 (VEGF), inner CL-33675 (PDGF), linkers GS-H10 / GS-L10(dR); Human IgG1 L234A, L235A, H435A with kappa light chain; also called 9E10.1-GS-33675; hu VEGF 9E10.1-GS-hu PDGF 33675 [hu IgG1/k]; LALA H435A) heavy: EIQLVQSGSELKKPGASVKVSCKASGYTFTNYGMYWVKQAPGQGLEYMGWIDTETGRPTYADDFKGRFVFSLDTSVSTAYLQISSLKAEDTAVYFCARWSGDTTGIRGPWFAYWGQGTLVTVSSGGGGSGGGGSEVTLRESGPALVKPTQTLTLTCTFSGFSLSTYGMGVGWIRQPPGKALEWLANIWWDDDKYYNPSLKNRLTISKDTSKNQVVLTMTNMDPVDTATYYCARIESSGPKYSFDYWGQGTMVTVSSASTKGPSVFPLAPSSKSTSGGTAALGCLVKDYFPEPVTVSWNSGALTSGVHTFPAVLQSSGLYSLSSVVTVPSSSLGTQTYICNVNHKPSNTKVDKKVEPKSCDKTHTCPPCPAPEAAGGPSVFLFPPKPKDTLMISRTPEVTCVVVDVSHEDPEVKFNWYVDGVEVHNAKTKPREEQYNSTYRVVSVLTVLHQDWLNGKEYKCKVSNKALPAPIEKTISKAKGQPREPQVYTLPPSREEMTKNQVSLTCLVKGFYPSDIAVEWESNGQPENNYKTTPPVLDSDGSFFLYSKLTVDKSRWQQGNVFSCSVMHEALHNAYTQKSLSLSPGK light: DIRMTQSPSSLSASVGDRVTIECLASEDIYSDLAWYQQKPGKSPKLLIYNANGLQNGVPSRFSGSGSGTDYSLTISSLQPEDVATYFCQQYNYFPGTFGQGTKLEIKGGSGGGGSGGEIVLTQSPGTLSLSPGERATLSCRASSGSIWYSFVSWYQQKPGQAPRLLIYADDQRASGIPDRFSGSGSGTDFTLTISRLEPEDFAVYYCQSYGINIDVVFGGGTKVEIKRTVAAPSVFIFPPSDEQLKSGTASVVCLLNNFYPREAKVQWKVDNALQSGNSQESVTEQDSKDSTYSLSSTLTLSKADYEKHKVYACEVTHQGLSSPVTKSFNRGEC | – | – | – | – | 1.8 | 9.7e+06 | 0.45 | 2e+07
9E10.1_GS_9E8.4 (PR-1612491) (bispecific antibody, human IgG1, kappa, L234A L235A, DVD-Ig: outer hBEW-9E10.1 (VEGF), inner hBDI-9E8.4 (PDGF), linkers GS-H10 / GS-L10(dR); Human IgG1 L234A, L235A, H435A with kappa light chain) heavy: EIQLVQSGSELKKPGASVKVSCKASGYTFTNYGMYWVKQAPGQGLEYMGWIDTETGRPTYADDFKGRFVFSLDTSVSTAYLQISSLKAEDTAVYFCARWSGDTTGIRGPWFAYWGQGTLVTVSSGGGGSGGGGSEVTLRESGPALVKPTQTLTLTCTFSGFSLSTYGMGVGWIRQPPGKALEWLANIWWDDDKYYNPSLKNRLTISKDTSKNQVVLTMTNMDPVDTATYYCARIESIGTTYSFDYWGQGTMVTVSSASTKGPSVFPLAPSSKSTSGGTAALGCLVKDYFPEPVTVSWNSGALTSGVHTFPAVLQSSGLYSLSSVVTVPSSSLGTQTYICNVNHKPSNTKVDKKVEPKSCDKTHTCPPCPAPEAAGGPSVFLFPPKPKDTLMISRTPEVTCVVVDVSHEDPEVKFNWYVDGVEVHNAKTKPREEQYNSTYRVVSVLTVLHQDWLNGKEYKCKVSNKALPAPIEKTISKAKGQPREPQVYTLPPSREEMTKNQVSLTCLVKGFYPSDIAVEWESNGQPENNYKTTPPVLDSDGSFFLYSKLTVDKSRWQQGNVFSCSVMHEALHNAYTQKSLSLSPGK light: DIRMTQSPSSLSASVGDRVTIECLASEDIYSDLAWYQQKPGKSPKLLIYNANGLQNGVPSRFSGSGSGTDYSLTISSLQPEDVATYFCQQYNYFPGTFGQGTKLEIKGGSGGGGSGGEFVLTQSPGTLSLSPGERATLSCERSSGDIGDSYVSWYQQKPGQAPRLVIYADDQRPSGIPDRFSGSGSGTDFTLTISRLEPEDFAVYYCQSYDINIDIVFGGGTKVEIKRTVAAPSVFIFPPSDEQLKSGTASVVCLLNNFYPREAKVQWKVDNALQSGNSQESVTEQDSKDSTYSLSSTLTLSKADYEKHKVYACEVTHQGLSSPVTKSFNRGEC | – | – | – | – | 2.2 | 1.1e+07 | 25 | 6.8e+06
